Our source for the protein stability index values is the supplement of paper PMC10567573.

B1: ETS1 (parent)
chain: FSEPSFITESYQTLHPISSEELLS
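Note: lentivirally expressed fusions sorted by FACS into six bins by GFP to DsRed ratio, PSI derived from sequencing read proportions per bin multiplied by bin number.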

The variants in the series derive from B1. In words: protein stability index of a GFP-peptide fusion (GPS, HEK-293T) (PSI 1-6); higher = more stable. To be noted: c terminus: a fixed tail appended.
As to FSEPSFITESGQTLHPISSEELLS [Y11G], the protein stability index worked out at 2.57. The value for FSEPSFITESEQTLHPISSEELLS [Y11E] was 2.95. Take FSEPSFITESAQTLHPISSEELLS [Y11A]: the protein stability index was found to be 2.21.

As for FSEPSFITESCQTLHPISSEELLS [Y11C], the protein stability index worked out at 1.67. The value for FSEPSFITESKQTLHPISSEELLS [Y11K] was 2.81. The value for FSEPSFITESDQTLHPISSEELLS [Y11D] was 2.96; that for FSEPSFITESPQTLHPISSEELLS [Y11P] was 3.21. FSEPSFITESTQTLHPISSEELLS [Y11T]: the protein stability index was 2.3. The value for FSEPSFITESLQTLHPISSEELLS [Y11L] was 1.71. For the variant FSEPSFITESFQTLHPISSEELLS [Y11F], the protein stability index worked out at 1.73. Under FSEPSFITESIQTLHPISSEELLS [Y11I] stands 2.04; under FSEPSFITESHQTLHPISSEELLS [Y11H], 2.25; under FSEPSFITESMQTLHPISSEELLS [Y11M], 2.02. For FSEPSFITESVQTLHPISSEELLS [Y11V], the protein stability index amounted to 1.78. Regarding FSEPSFITESRQTLHPISSEELLS [Y11R], the protein stability index came to 1.82. Under FSEPSFITESWQTLHPISSEELLS [Y11W] stands 1.34; under FSEPSFITESQQTLHPISSEELLS [Y11Q], 2.57; under FSEPSFITESNQTLHPISSEELLS [Y11N], 2.56. On to FSEPSFITESSQTLHPISSEELLS [Y11S], for which the protein stability index stood at 2.2. Under FSEPSFIKESYQTLHPISSEELLS [T8K] stands 2.32.

FSEPSFIRESYQTLHPISSEELLS [T8R]: the protein stability index amounted to 2.12. The value for FSEPSFICESYQTLHPISSEELLS [T8C] was 2.22; that for FSEPSFIYESYQTLHPISSEELLS [T8Y] was 2.17; that for FSEPSFIEESYQTLHPISSEELLS [T8E] was 3.4. In the case of FSEPSFIMESYQTLHPISSEELLS [T8M], the protein stability index worked out at 1.78. As for FSEPSFIFESYQTLHPISSEELLS [T8F], the protein stability index was 1.95.

As for FSEPSFIVESYQTLHPISSEELLS [T8V], the protein stability index was 1.36. Under FSEPSFIIESYQTLHPISSEELLS [T8I] stands 1.98; under FSEPSFIDESYQTLHPISSEELLS [T8D], 3.47; under FSEPSFIHESYQTLHPISSEELLS [T8H], 2.04. On to FSEPSFIGESYQTLHPISSEELLS [T8G], for which the protein stability index amounted to 2.05. Under FSEPSFINESYQTLHPISSEELLS [T8N] stands 2.91; under FSEPSFISESYQTLHPISSEELLS [T8S], 2.38; under FSEPSFIQESYQTLHPISSEELLS [T8Q], 2.59. The value for FSEPSFILESYQTLHPISSEELLS [T8L] was 1.92; that for FSEPSFIAESYQTLHPISSEELLS [T8A] was 2.29; that for FSEPSFIPESYQTLHPISSEELLS [T8P] was 3.5.

FSEPSFITELYQTLHPISSEELLS [S10L]: the protein stability index was 2.52. The value for FSEPSFITEEYQTLHPISSEELLS [S10E] was 3. As for FSEPSFITEQYQTLHPISSEELLS [S10Q], the protein stability index was 2.35. In the case of FSEPSFITEWYQTLHPISSEELLS [S10W], the protein stability index was 1.5.

Take FSEPSFITETYQTLHPISSEELLS [S10T]: the protein stability index is 2.15.

Regarding FSEPSFITEMYQTLHPISSEELLS [S10M], the protein stability index amounted to 2.02. With FSEPSFITEAYQTLHPISSEELLS [S10A], the protein stability index came to 1.74. Under FSEPSFITEIYQTLHPISSEELLS [S10I] stands 1.86. Take FSEPSFITEHYQTLHPISSEELLS [S10H]: the protein stability index is 2.06. As to FSEPSFITEPYQTLHPISSEELLS [S10P], the protein stability index amounted to 2.62.

As for FSEPSFITEDYQTLHPISSEELLS [S10D], the protein stability index turned out to be 2.82. FSEPSFITENYQTLHPISSEELLS [S10N]: the protein stability index was determined as 1.99. Consider FSEPSFITEVYQTLHPISSEELLS [S10V], for which the protein stability index turned out to be 2.52. Consider FSEPSFITEFYQTLHPISSEELLS [S10F], for which the protein stability index turned out to be 1.7.

In the case of FSEPSFITECYQTLHPISSEELLS [S10C], the protein stability index is 1.53. Under FSEPSFITEGYQTLHPISSEELLS [S10G] stands 1.72. As for FSEPSFITERYQTLHPISSEELLS [S10R], the protein stability index turned out to be 2.16. The value for FSEPSFITEKYQTLHPISSEELLS [S10K] was 2.25; that for FSEPSFITEYYQTLHPISSEELLS [S10Y] was 1.74.

In the case of FSEPSFITESYPTLHPISSEELLS [Q12P], the protein stability index amounted to 1.91. Under FSEPSFITESYCTLHPISSEELLS [Q12C] stands 2.24; under FSEPSFITESYSTLHPISSEELLS [Q12S], 1.88; under FSEPSFITESYTTLHPISSEELLS [Q12T], 1.59. FSEPSFITESYMTLHPISSEELLS [Q12M]: the protein stability index came out at 1.95.

Regarding FSEPSFITESYITLHPISSEELLS [Q12I], the protein stability index was found to be 1.58.

Regarding FSEPSFITESYHTLHPISSEELLS [Q12H], the protein stability index amounted to 2.05. The value for FSEPSFITESYNTLHPISSEELLS [Q12N] was 2.26. FSEPSFITESYKTLHPISSEELLS [Q12K]: the protein stability index stood at 1.85. Under FSEPSFITESYRTLHPISSEELLS [Q12R] stands 1.92. Under FSEPSFITESYWTLHPISSEELLS [Q12W] stands 2.42; under FSEPSFITESYETLHPISSEELLS [Q12E], 2.27; under FSEPSFITESYLTLHPISSEELLS [Q12L], 2.45. For FSEPSFITESYATLHPISSEELLS [Q12A], the protein stability index was 2.1.

In the case of FSEPSFITESYGTLHPISSEELLS [Q12G], the protein stability index was found to be 1.84. The value for FSEPSFITESYVTLHPISSEELLS [Q12V] was 1.62; that for FSEPSFITESYDTLHPISSEELLS [Q12D] was 2.52.

On to FSEPSFITESYFTLHPISSEELLS [Q12F], for which the protein stability index came to 1.98. The value for FSEPSFITASYQTLHPISSEELLS [E9A] was 1.76. Under FSEPSFITMSYQTLHPISSEELLS [E9M] stands 2.32; under FSEPSFITVSYQTLHPISSEELLS [E9V], 2.05; under FSEPSFITISYQTLHPISSEELLS [E9I], 2.57. The value for FSEPSFITGSYQTLHPISSEELLS [E9G] was 1.88; that for FSEPSFITCSYQTLHPISSEELLS [E9C] was 2.25. Turning to FSEPSFITYSYQTLHPISSEELLS [E9Y], the protein stability index was found to be 1.77. On to FSEPSFITDSYQTLHPISSEELLS [E9D], for which the protein stability index was 1.88.

For FSEPSFITTSYQTLHPISSEELLS [E9T], the protein stability index stood at 1.94. Regarding FSEPSFITFSYQTLHPISSEELLS [E9F], the protein stability index was found to be 2.58. As to FSEPSFITLSYQTLHPISSEELLS [E9L], the protein stability index worked out at 1.5.

For FSEPSFITNSYQTLHPISSEELLS [E9N], the protein stability index came out at 1.62. The value for FSEPSFITSSYQTLHPISSEELLS [E9S] was 2.25; that for FSEPSFITRSYQTLHPISSEELLS [E9R] was 2.24. The value for FSEPSFITHSYQTLHPISSEELLS [E9H] was 2; that for FSEPSFITWSYQTLHPISSEELLS [E9W] was 2.06. Under FSEPSFITQSYQTLHPISSEELLS [E9Q] stands 2.02; under FSEPSFITPSYQTLHPISSEELLS [E9P], 1.75; under FSEPSFITKSYQTLHPISSEELLS [E9K], 1.97. Take FSEPSFYTESYQTLHPISSEELLS [I7Y]: the protein stability index was determined as 2.82.
